Assay results taken from paper PMC12291119, “In Vitro Selection of Cyclized, Glycosylated Peptide Antigens That Tightly Bind HIV High Mannose Patch Antibodies” (ACS Central Science, 2025).

Assays:
Assay in all cases: BLI; glycopeptides immobilized via biotin on a streptavidin biosensor; series of 2-fold dilutions of antibody
[1] = target: H1 mutant without the glycans at the second and third glycosylation sites (peptide 4)
[2] = target: H1 mutant with IGDIR changed to IAAIA (peptide 5)
[3] = target: random scrambled version of the H1 sequence containing three glycans and cyclization (peptide 6)
[4] = target: H1 glycopeptide (peptide 1)
[5] = target: L1 glycopeptide (peptide 8)
[6] = target: H22 glycopeptide (peptide 2)
[7] = target: H1 mutant without the glycan at the first of the three glycosylation sites (peptide 3)
[8] = target: acyclic H1 variant (peptide 7)

B1: PGT128 (antibody, V domains shown)
VH: QPQLQESGPTLVEASETLSLTCAVSGDSTAACNSFWGWVRQPPGKGLEWVGSLSHCASYWNRGWTYHNPSLKSRLTLALDTPKNLVFLKLNSVTAADTATYYCARFGGEVLRYTDWPKPAWVDLWGRGTLVTVSS
VL: QSALTQPPSASGSPGQSITISCTGTSNNFVSWYQQHAGKAPKLVIYDVNKRPSGVPDRFSGSKSGNTASLTVSGLQTDDEAVYYCGSLVGNWDVIFGGGTKLTVL
fold decrease in binding against H1 (peptide 1) [1]: 40 fold | fold decrease in binding against H1 (peptide 1) [2]: 26 fold | Kd [3]: 251 nM | Kd [4]: 0.52 nM | Kd [5]: 2.37 nM | Kd [6]: 16.9 nM | fold loss of recognition against H1 (peptide 1) [7]: 2 fold | Kd [8]: 90 nM
